Blank lines part the entries; values can stand above or below the molecule they belong to. Where a SMILES comes first, the peptide text is derived from it. Where no end group is shown, it is not given here. The star is where a group is joined. Oxazole(5-CO) = O=C(c1cnco1)*; Crotonyl(E) = C/C=C/C(=O)*; 2Furoyl = O=C(c1ccco1)*; Butyryl = CCCC(=O)*
Tests used:
[1] = biological target: T1, ENL YEATS domain (His-ENL YEATS) (Homo sapiens, UniProt Q03111); test: AlphaScreen inhibition of ENL YEATS binding to biotinylated H3K27cr peptide; details: mean ± SD, n = 3
T1 construct: (aa 1−148) was cloned in pET19b; made in house; host or cells: E. coli BL21(DE3pLysS)
T1 sequence (Q03111 1-148): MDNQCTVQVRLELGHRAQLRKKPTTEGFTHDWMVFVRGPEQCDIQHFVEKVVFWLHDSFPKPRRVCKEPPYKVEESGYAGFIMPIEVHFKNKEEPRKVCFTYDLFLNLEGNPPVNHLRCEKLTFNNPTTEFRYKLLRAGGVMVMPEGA
Description: (§1) To test the inhibition potency of the two selected peptides for the ENL YEATS domain, ENL-S1 and ENL-S2 were chemically synthesized through solid-phase peptide synthesis (SPPS) and evaluated by an AlphaScreen assay. In this assay, a biotinylated H3K27cr peptide and a 6xHis-tagged ENL YEATS domain (His-ENL YEATS) were immobilized on PerkinElmer streptavidin donor and nickel-chelating (Ni-NTA) acceptor beads, respectively. The use of a His-ENL YEATS instead of the original AviSUMO-ENL YEATS construct in the assay prevents potential false positive results derived from ligands which bind to the SUMO protein but not to the ENL YEATS domain. […] We then assessed the binding affinity of two ligands for the ENL YEATS domain using biolayer interferometry (BLI). Briefly, His-ENL was immobilized onto Ni-NTA functionalized biosensors to measure the binding kinetics of target peptides at different concentrations. […] As a small peptide directly selected from a phage display library, this level of high potency was unexpected. […] However, shorter-than-10-mer linear peptides with nanomolar binding potency have rarely been directly selected from phage display libraries. One example was S2P03, a 7-mer peptide that has a KD value as 49 ± 9 nM to bind to SIRT2.[10] This peptide contained BuK and was identified also from a BuK-containing phage display library using the active site-directed ligand selection technique. Taken together, the two examples confirmed that utilizing phage display libraries incorporated with a ncAA serving as a ligand for a protein target for active site-directed ligand selection is a successful method for identifying ultrahigh potency ligands for epigenetic proteins including both enzymes and readers. For ENL-S1 and ENL-S2, their determined kon and koff values were 6.23 ± 0.07 × 10^4 M^–1 s^–1, […] and […], 5.54 ± 0.02 × 10^–3 s^–1, respectively. Compared to ENL-S2, ENL-S1 has faster binding to the ENL YEATS domain and slower release from it, indicating its potential long-term action on the ENL YEATS inhibition. […]
Characterization of Selected Peptide Inhibitors
AlphaScreen Assay to Validate ENL Inhibitors:
His-ENL, His-AF9 (aa 1-149, EpiCypher), and biotinylated H3K27cr (aa 15-33, EpiCypher) were used to assay the synthesized inhibitors. The lyophilized peptide inhibitors were dissolved in DMF […]
and serially diluted into assay buffer (50 mM HEPES, 100 mM NaCl, 0.1% BSA, 0.05% CHAPS, pH 7.4) and incubated in the presence of 120 nM His-tagged protein at 37 °C for 30 minutes. 12.5 μL of biotinylated H3K27cr (400 nM) was aliquoted into a light gray 384-well Alphaplate (Perkin Elmer) and incubated at 37 °C. 12.5 μL of the inhibitor/protein solution was added to the H3K27cr solution, and incubated for 30 minutes at 37 °C. 25 μL of AlphaScreen histidine (nickel chelate) detection beads (Perkin Elmer) was added at 20 μg/mL each bead (streptavidin donor beads and nickel chelate acceptor beads), and the plate was incubated at 37 °C for 30 minutes. The plate was cooled to room temperature for 10 minutes, and then the beads were excited at 680 nm and the luminescence at 615 nm was read. […]
Biolayer […]
interferometry assays were performed in 96 well plates (GreinerBio-One, polypropylene, flat-bottom) using an Octet Red96 System (Sartorius). Wells were filled with 200 μL of assay buffer, blocking buffer (assay buffer + 0.1% BSA), protein solution, peptide solution, regeneration solution, and reload solution. For immobilization, His-tagged proteins were immobilized onto Ni-NTA sensors at 20 for 600 s. Sensors were then dipped into blocking buffer for 180 s, assay […] buffer for 300 s, peptide solution for 300 s, and back to assay buffer for 300 s. If multiple samples were tested, Ni-NTA sensors can be reconditioned in regeneration (10 mM glycine, pH 1.7) solution followed by reload solution (10 mM NiCl2) for 30 and 60 s, respectively. Measurements […]

[2] = biological target: T2, ENL YEATS domain (His-ENL) (Homo sapiens, UniProt Q03111); test: Biolayer interferometry (BLI) binding to ENL YEATS; details: BLI
T2 construct: (aa 1−148) was cloned in pET19b; made in house; host or cells: E. coli BL21(DE3pLysS)
T2 sequence (Q03111 1-148): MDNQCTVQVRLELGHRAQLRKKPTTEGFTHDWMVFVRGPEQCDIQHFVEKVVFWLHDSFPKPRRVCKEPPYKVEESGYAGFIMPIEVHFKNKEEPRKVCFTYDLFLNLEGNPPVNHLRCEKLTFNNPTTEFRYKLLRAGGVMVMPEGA
Description: as §1
Biolayer Interferometry to Validate ENL Ligands:
His-ENL, His-AF9 (aa 1-149, EpiCypher), His-GAS41 (aa 15-160, EpiCypher), and YEATS2-His (aa 200-345, EpiCypher) were reconstituted in water and diluted into assay buffer (20mM Tris, 300 mM NaCl, pH 7.9) for immobilization onto Octet Ni-NTA biosensors (Sartorius). Lyophilized peptides were dissolved in DMF and diluted to designated concentrations in assay buffer. Biolayer interferometry assays were performed in 96 well plates (GreinerBio-One, polypropylene, flat-bottom) using an Octet Red96 System (Sartorius). Wells were filled with 200 μL of assay buffer, blocking buffer (assay buffer + 0.1% BSA), protein solution, peptide solution, regeneration solution, and reload solution. For immobilization, His-tagged proteins were immobilized onto Ni-NTA sensors at 20 for 600 s. Sensors were then dipped into blocking buffer for 180 s, assay […] buffer for 300 s, peptide solution for 300 s, and back to assay buffer for 300 s. If multiple samples were tested, Ni-NTA sensors can be reconditioned in regeneration (10 mM glycine, pH 1.7) solution followed by reload solution (10 mM NiCl2) for 30 and 60 s, respectively. Measurements were carried out at 30 °C. Data were analyzed within the ForteBio Data Analysis software. Data were processed by double subtracting ligand only and protein only reference wells and aligning the data to the beginning of the association. Then, global kinetic fit was performed for all sensogram curves with a 1:1 model. Steady state KD values were reported.
AlphaScreen Assay with Biotinylated-ENL-S1:
The AlphaScreen assay was carried out in 384-well plates. Manual assay setup was performed in a 40 uL reaction buffer (50 mM HEPES pH 7.4, 100 mM NaCl, 0.1% bovine serum albumin, and 0.05% CHAPS). 10 µL of varying concentrations of His-ENL YEATS (0-300 nM) and 10 µL of […]

[3] = biological target: T3, 6xHis-tagged ENL YEATS domain, Q03111; test: AlphaScreen; details: chain shown with the change; n = 3; parent: 62.6 nM
T3 chain: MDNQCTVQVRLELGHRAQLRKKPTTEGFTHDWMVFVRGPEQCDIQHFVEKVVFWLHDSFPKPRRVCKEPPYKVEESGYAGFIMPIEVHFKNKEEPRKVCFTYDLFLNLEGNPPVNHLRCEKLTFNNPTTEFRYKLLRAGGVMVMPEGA

[4] = biological target: T4, AF9 YEATS domain (human, UniProt P42568 1-138); test: AlphaScreen or HTRF; competition: AF9 YEATS and its corresponding acylated histone peptide; test peptide varied; n = 3
T4 chain: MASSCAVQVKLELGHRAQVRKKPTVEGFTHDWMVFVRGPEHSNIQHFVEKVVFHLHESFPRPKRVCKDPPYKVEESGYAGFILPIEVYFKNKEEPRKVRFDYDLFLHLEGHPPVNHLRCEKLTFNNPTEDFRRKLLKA

[5] = biological target: T5, 6xHis-tagged ENL YEATS domain (human, UniProt Q03111 1-148); test: AlphaScreen or HTRF; competition: biotinylated H3K27cr peptide on streptavidin donor beads, His-ENL YEATS on nickel-chelating (Ni-NTA) acceptor beads; test peptide varied; n = 3
T5 chain: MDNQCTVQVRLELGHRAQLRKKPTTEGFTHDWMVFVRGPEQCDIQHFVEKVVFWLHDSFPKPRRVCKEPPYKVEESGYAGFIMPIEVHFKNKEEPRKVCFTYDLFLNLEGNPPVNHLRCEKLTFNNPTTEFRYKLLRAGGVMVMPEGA

[6] = biological target: T4, AF9 YEATS domain

IC50 [1]: > 2000 nM
Molecule: CCCC(=O)NCCCC[C@H](NC(=O)[C@H](Cc1ccc(O)cc1)NC(=O)[C@H](C)NC(=O)[C@H](Cc1ccc(O)cc1)NC(=O)[C@@H](NC(=O)[C@H](CC(=O)O)NC(=O)[C@@H](N)Cc1ccc(O)cc1)C(C)C)C(N)=O [ENL-S1A5] (H-YDVYAYK(Butyryl)-NH2; N-terminus assumed)

IC50 [1]: 1220 nM
Kd [2]: 881 ± 9 nM
koff [2]: 0.00554 s⁻¹
Molecule: CCCC(=O)NCCCC[C@H](NC(=O)[C@H](CCC(=O)O)NC(=O)[C@@H](NC(=O)[C@@H](NC(=O)[C@H](Cc1c[nH]c2ccccc12)NC(=O)[C@@H](N)Cc1c[nH]c2ccccc12)[C@@H](C)CC)[C@@H](C)CC)C(=O)NCC(N)=O [ENL-S2] (H-WWIIEK(Butyryl)G-NH2; N-terminus assumed)

IC50 [1]: > 5000 nM
Molecule: CCCC(=O)NCCCC[C@H](NC(=O)[C@H](Cc1ccc(O)cc1)NC(=O)[C@H](CS)NC(=O)[C@H](Cc1ccc(O)cc1)NC(=O)[C@H](C)NC(=O)[C@H](CC(=O)O)NC(=O)[C@@H](N)Cc1ccc(O)cc1)C(N)=O [ENLS1A3] (H-YDAYCYK(Butyryl)-NH2; N-terminus assumed)

IC50 [3]: > 5000 nM
B1: ENL-S1 V3A (peptide)
chain: YDAYCYK

fold lower potency (IC50) toward AF9 YEATS than toward ENL YEATS [4]: 18 fold
IC50 [6]: 347 nM
B7: ENL-S1c (peptide)
chain: YDVYCYK(Crotonyl(E))

fold lower potency (IC50) toward AF9 YEATS than toward ENL YEATS [4]: 23 fold
IC50 [5]: 10 nM
IC50 [6]: 231 nM
B8: ENL-S1o (peptide)
chain: YDVYCYK(Oxazole(5-CO))

The remaining lines, values behind:

B2: ENL-S1 Y1A (peptide)
chain: ADVYCYK
IC50 [3]: 248 nM

B3: ENL-S1 Y4A (peptide)
chain: YDVACYK
IC50 [3]: 718 nM

B4: ENL-S1 D2A (peptide)
chain: YAVYCYK
IC50 [3]: 52.2 nM

B5: ENL-S1f (peptide)
chain: YDVYCYK(2Furoyl)
fold lower potency (IC50) toward AF9 YEATS than toward ENL YEATS [4]: 7.7 fold
IC50 [5]: 22 nM
IC50 [6]: 168 nM

B6: ENL-S1 C5A (peptide)
chain: YDVYAYK
IC50 [3]: > 2000 nM

From paper PMC11046469, “Leveraging a Phage-Encoded Noncanonical Amino Acid: A Novel Pathway to Potent and Selective Epigenetic Reader Protein Inhibitors” (ACS Central Science, 2024)
